T1: CD20 (Homo sapiens, UniProt P11836)
T1 chain: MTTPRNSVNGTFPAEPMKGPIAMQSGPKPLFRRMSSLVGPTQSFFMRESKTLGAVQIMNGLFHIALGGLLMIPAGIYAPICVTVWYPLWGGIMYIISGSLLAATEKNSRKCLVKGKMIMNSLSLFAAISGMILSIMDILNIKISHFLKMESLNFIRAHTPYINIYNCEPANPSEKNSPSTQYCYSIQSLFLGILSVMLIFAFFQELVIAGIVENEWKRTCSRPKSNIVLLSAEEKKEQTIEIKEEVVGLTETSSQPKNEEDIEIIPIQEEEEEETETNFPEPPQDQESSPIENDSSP

B1: rituximab (antibody, V domains shown)
VH: QVQLQQPGAELVKPGASVKMSCKASGYTFTSYNMHWVKQTPGRGLEWIGAIYPGNGDTSYNQKFKGKATLTADKSSSTAYMQLSSLTSEDSAVYYCARSTYYGGDWYFNVWGAGTTVTVSA
VL: QIVLSQSPAILSASPGEKVTMTCRASSSVSYIHWFQQKPGSSPKPWIYATSNLASGVPVRFSGSGSGTSYSLTISRVEAEDAATYYCQQWTSNPPTFGGGTKLEIK
modifications: FITC-labeled rituximab

Key:
CD20 (Homo sapiens) = CD20 (Homo sapiens) (UniProt P11836); conditions: cited from earlier work
CD20 = molecular target: T1, CD20

Molecule	Kd (CD20 (Homo sapiens))	Kd (CD20)
rituximab	4.96 nM	
B1		4.82 nM

Source: paper PMC6713228 (2018)
